Test results: paper PMC11347675

How the values were obtained:
[1] = target: 1059-SOSIP (soluble SOSIP Env trimer of the transmitted/founder HIV-1 strain 1059) (HIV-1 (strain 1059, transmitted/founder)); test: cryo-EM structure; unliganded SOSIP trimers purified by GNL/SEC; 2.16 mg/mL 1059-SOSIP, 3.64 mg/mL BG505-SOSIP; 0.085 mM DDM before vitrification; refined with C1 symmetry
[2] = target: BG505-SOSIP (soluble SOSIP Env trimer of HIV-1 strain BG505) (HIV-1 (strain BG505)) (UniProt Q2N0S6); test: as above

| Substance | stoichiometry N [1] | stoichiometry N [2] |
| --- | --- | --- |
| 1059-SOSIP (soluble SOSIP Env trimer of the transmitted/founder HIV-1 strain 1059) (complex) | 3 |  |
| BG505-SOSIP (soluble SOSIP Env trimer of HIV-1 strain BG505) (from UniProt Q2N0S6 1-860; Q2N0S6 1-860) (complex) |  | 3 |
